Experiment [1] has as its target T cell receptor of the I-A^d restricted OVA specific T cell hybridoma 8DO51.15. Nature of the experiment: flow cytometry; biotinylated MHC in liposomes, no peptide. On the technique in general: Flow cytometry measures light scatter and fluorescence of single cells or particles in a stream.
Experiment [2] has the same target. The experiment in a line: flow cytometry; correct restriction element, irrelevant peptide, on 8D051.15 cells.
Experiment [3] concerns the target T cell receptors of T cell populations derived from Iα52-supplemented FTOC and expanded with Hi15.
For experiment [4], the target named is T cell receptors of CD4+ cells from BALB/c fetal thymic organ culture (FTOC). Nature of the experiment: flow cytometry T cell capture; FTOC alone without added peptide; polyclonal thymocytes.
The target in experiment [5] is T cell receptors of CD4+ T cells from regional draining lymph nodes of BALB/c mice. The experiment in a line: flow cytometry T cell capture; lymph node cells of Iα52-immunized BALB/c mice; polyclonal.
Experiment [6] has as its target T cell receptors of CD4+ cells from BALB/c fetal thymic organ culture (FTOC). Nature of the experiment: flow cytometry T cell capture; FTOC in the presence of 10^-2 mM Iα52; polyclonal thymocytes.
In experiment [7] the target is T cell receptors of CD4+ T cells from regional draining lymph nodes of BALB/c mice. The experiment in a line: flow cytometry T cell capture; lymph node cells of IFA-only immunized BALB/c mice; polyclonal.
Experiment [8] addresses T cell receptors of T cell populations derived from Iα52-supplemented FTOC and expanded with Hi15. The experiment in a line: flow cytometry; cells from Iα52-supplemented FTOC after two weeks with 10 ug/ml Hi15; polyclonal.
Experiment [9] deals with T cell receptor of the I-A^d restricted OVA specific T cell hybridoma 8DO51.15. Nature of the experiment: flow cytometry; liposome:MHC:b-peptide with streptavidin-FITC on hybridoma cells, final MHC concentration 66 ug/ml.

B1: biotinylated I-A^d in liposomes without peptide (protein, mouse)
MHC II alpha: EDDIEADHVGFYGTTVYQSPGDIGQYTHEFDGDELFYVDLDKKKTVWRLPEFGQLILFEPQGGLQNIAAEKHNLGILTKRSNFTPATNEAPQATVFPKSPVLLGQPNTLICFVDNIFPPVINITWLRNSKSVTDGVYETSFLVNRDHSFHKLSYLTFIPSDDDIYDCKVEHWGLEEPVLKHWEPEIPAPMSELTE
MHC II beta: GNSERHFVVQFKGECYYTNGTQRIRLVTRYIYNREEYVRYDSDVGEYRAVTELGRPDAEYWNSQPEILERTRAEVDTACRHNYEGPETSTSLRRLEQPNVAISLSRTEALNHHNTLVCSVTDFYPAKIKVRWFRNGQEETVGVSSTQLIRNGDWTFQVLVMLEMTPHQGEVYTCHVEHPSLKSPITVEWRAQSESARSK
B1 returned a % of cells bound in experiment [1] of 6.9%.

B2: liposome:I-A^d:biotinylated Hi15 peptide complex (peptide-MHC)
MHC II alpha: B1 MHC II alpha
MHC II beta: B1 MHC II beta
peptide: TSFPMRGDLAKREPDK
In experiment [2], B2 registered a % positive cells of 8.7%. In experiment [3], the % of CD4+ cells positive for both peptides worked out at 31.1% and the % of cells positive was found to be 52%.

B3: liposome:I-A^d:biotinylated Iα52 peptide complex (peptide-MHC, mouse)
MHC II alpha: B1 MHC II alpha
MHC II beta: B1 MHC II beta
peptide: ASFEAQGALANIAVDKA
With B3, the % of CD4+ cells bound was 20.7% in experiment [4] and 50.9% in [6]. Also, the results for the % of CD4+ T cells specific in experiment [5] and in experiment [7] were 5.4% and 0.7%, respectively. In experiment [3], this molecule came in with a % of CD4+ cells positive for both peptides of 31.1%. In experiment [8], the % of cells bound is 52.8%.

B4: liposome:I-A^d:biotinylated OVA^323-336 peptide complex (peptide-MHC, mouse)
MHC II alpha: B1 MHC II alpha
MHC II beta: B1 MHC II beta
peptide: ISQAVHAAHAEINE
As to B4, the % of cells stained positive in experiment [9] is 87.2%.

(Values after patent publication US20050208120A1.)
